Test system: poly-Gly-Pro and poly-Gly-Ala DPRs
Experiment: Western blot of RAN-translated DPRs in N2A cells
Type: cell-based, mouse
Settings: G4C2×38 or C4G2×39 constructs, 72 h
Protocol: Neuro-2a (ATCC) cells were cultured in Dulbecco's Modified Eagle Medium (Sigma) supplemented with 10% fetal bovine serum [FBS] (Gibco), 5 U/ml Penstrep (Lonza) and 5 mM sodium pyruvate. Cells were maintained in a […] incubator with 5% CO2. 75,000 Neuro-2a cells were split into each well of 24-well plates and transfected for 72 h with 500 ng pcDNA6.2-GW/EmGFP-Control miR RNAi (ThermoFisher) or pcDNA6.2-GW/EmGFP-mouse SRSF1 miR1+2 RNAi and 200 ng pcDNA 3.1/RAN-G4C2×38-sense or RAN-C4G2×39-antisense using 3 μg PEI/1 μg DNA and one tenth medium volume OptiMEM (ThermoFisher).
HEK cells were transfected for 72 h with 650 ng pcDNA6.2-GW/EmGFP-Control miRNA, pCDNA6.2-GW/EmGFP-human SRSF1 miR1+2 RNAi or LV-EmGFP-human SRSF1 miR1+2 RNAi constructs and 50 ng p3×FLAG/human-SRSF1 using 3.5 μg PEI/ml media and one tenth medium volume of OptiMEM. Neuro-2a cells were split into each well of 24-well plates (75,000 cells/well) and transfected for 72 h with 350 ng pcDNA6.2-GW/EmGFP-Control miR RNAi (ThermoFisher), pcDNA6.2-GW/EmGFP-mouse SRSF1 miR1+2 RNAi, p3×FLAG, p3×FLAG/SRSF1 (11-196), p3×FLAG/SRSF1 (11-196)-m2 or p3×FLAG/SRSF1 (11-196)-m4 and 350 ng pcDNA 3.1/RAN-G4C2×38-sense or RAN-C4G2×39-antisense using 3 μg PEI/1 μg DNA and one tenth medium volume OptiMEM.
Proteins were extracted from HEK or Neuro-2a cells 72 hours after transfection. […] Protein extracts were quantified using Bradford Reagent (BioRAD), resolved by SDS-PAGE, electroblotted onto nitrocellulose membrane and probed using the relevant primary antibody. […] (kindly received from Prof Stuart Pickering Brown) primary antibodies were detected with horseradish peroxidase (HRP)-conjugated rabbit secondary antibody [1:5000 dilution] […] (kindly provided from Prof Dieter Edbauer) primary antibodies were detected using HRP-conjugated mouse secondary antibody [1:5000 dilution] […] For dot blot analysis, 50 μg total protein extracts prepared in ice-cold lysis buffer were loaded onto a nitrocellulose membrane using a microfiltration apparatus (Biorad) and analysed by western immunoblotting as previously described.

B1: SRSF1-m4: quadruple SRSF1 point mutant aa11-196, dominant negative, does not interact with TAP/NXF1 (protein)
chain: AGNNDCRIYVGNLPPDIRTKDIEDVFYKYGAIRDIDLKNRRGGPPFAFVEFEDPRDAEDAVYGRDGYDYDGYRLRVEFPASGAGTGRGGGGGGGGGAPRGRYGPPSAASENRVVVSGLPPSGSWQDLKDHMREAGDVCYADVYRDGTGVVEFVRKEDMTYAVRKLDNTKFRSHEGETAYIRVKVDG
modifications: left off: small tags and cut ends
**Q.** Which “effect on RAN translation / production of sense and antisense DPRs” value does the source give for B1 here?
**A.** The value was “marked reduction”.
